In the assay the target is His-tagged domains of human FcγRII (R&D Systems, Cat # 1330-CD) (human) (UniProt P12318). In words: SPR (Biacore 3000), His-tagged receptor captured by penta-His antibody on CM5 chip, antibody injected; RU relative to control.

For “Bapineuzumab (humanized 3D6, human IgG1, no Fc mutations) (antibody)”, the Relative Binding Capability (%) amounted to 100%.

For the origin of these results see patent US20090155256A1.
